Residue numbers refer to the chain shown, from its start.
T1: human IL-4Rα (human, UniProt P24394 26-232)
T1 construct: also called Hu IL-4Rα; hIL-4Rα
T1 sequence: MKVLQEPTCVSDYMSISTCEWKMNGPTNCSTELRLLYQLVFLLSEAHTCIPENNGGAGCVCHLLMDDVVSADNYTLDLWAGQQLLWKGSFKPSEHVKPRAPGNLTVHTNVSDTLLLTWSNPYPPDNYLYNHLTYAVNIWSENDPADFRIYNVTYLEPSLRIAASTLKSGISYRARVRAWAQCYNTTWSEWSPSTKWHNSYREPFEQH

T2: cynomolgus monkey IL-4Rα (cynomolgus monkey, UniProt P24394 26-231 (human entry), limits assumed)
T2 construct: also called Cyno IL-4Rα; cyIL-4Rα
T2 chain: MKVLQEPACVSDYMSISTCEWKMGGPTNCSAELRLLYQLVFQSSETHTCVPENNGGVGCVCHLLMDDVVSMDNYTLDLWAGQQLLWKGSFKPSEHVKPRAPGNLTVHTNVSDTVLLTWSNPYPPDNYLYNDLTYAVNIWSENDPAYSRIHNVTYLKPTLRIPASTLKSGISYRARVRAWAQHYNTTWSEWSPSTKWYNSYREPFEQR

T3: hIL-4Rα on cells (human, UniProt P24394 26-825)
T3 sequence: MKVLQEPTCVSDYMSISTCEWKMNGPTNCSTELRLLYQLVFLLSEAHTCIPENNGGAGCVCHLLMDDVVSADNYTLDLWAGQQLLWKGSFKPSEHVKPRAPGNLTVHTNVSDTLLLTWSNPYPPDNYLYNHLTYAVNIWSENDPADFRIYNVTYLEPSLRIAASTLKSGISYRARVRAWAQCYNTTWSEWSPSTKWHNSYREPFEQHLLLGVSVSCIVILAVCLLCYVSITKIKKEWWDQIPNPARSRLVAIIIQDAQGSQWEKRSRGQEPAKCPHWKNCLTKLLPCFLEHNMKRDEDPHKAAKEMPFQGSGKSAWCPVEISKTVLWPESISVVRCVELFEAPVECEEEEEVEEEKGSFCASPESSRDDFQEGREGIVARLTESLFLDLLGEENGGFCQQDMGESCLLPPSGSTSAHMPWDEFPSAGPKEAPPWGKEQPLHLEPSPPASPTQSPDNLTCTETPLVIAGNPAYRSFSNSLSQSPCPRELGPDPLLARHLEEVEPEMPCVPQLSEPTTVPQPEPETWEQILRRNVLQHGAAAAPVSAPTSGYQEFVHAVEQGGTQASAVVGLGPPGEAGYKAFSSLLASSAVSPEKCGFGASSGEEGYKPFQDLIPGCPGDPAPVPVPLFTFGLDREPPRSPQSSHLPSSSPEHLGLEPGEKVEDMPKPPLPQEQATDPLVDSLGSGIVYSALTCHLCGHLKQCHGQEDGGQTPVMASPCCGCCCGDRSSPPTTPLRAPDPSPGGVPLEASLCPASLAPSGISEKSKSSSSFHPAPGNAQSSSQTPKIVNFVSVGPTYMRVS

B1: Construct 9 (mAb418) (antibody, IgG4, V domains shown)
VH: EVQLVESGGGLEQPGGSLRLSCAGSGFTFTDFAMTWVRQAPGKGLEWVSSISGSGGNIYYADSVKGRFTISRDNSKNTLYLQMNSLRAEDTAVYYCAKDRLSVTVRPRYYGLDVWGQGTTVTVSS
VL: DIVMTQSPLSLPVTPGEPASISCRSSQSLLYSIGKNYVDWYLQKSGQSPQLLIYLGNNRATGVPDRFSGSGSGTDFTLKISRVEAEDVGFYYCMQALGSPYTFGQGTKLEIK
notes: VH/VL only
B2: Construct 18 (mAb426) (antibody, IgG4, V domains shown)
VH: B1 VH with T30R, G56D, I58T, V103K, V105I
VL: B1 VL with R24T, N58K, T61S, A96S, G98T
notes: VH/VL only
B3: Construct 20 (mAb428) (antibody, IgG4, V domains shown)
VH: B1 VH with T30R, G56D, I58T, V103I
VL: B1 VL with R24T, K35Y, N58K, T61S, A96S, G98Q, S99T, T102V
notes: VH/VL only
B4: Construct 21 (mAb429) (antibody, IgG4, V domains shown)
VH: B1 VH with T30R, D31T, F32Y, L101V, V103I, T104Y
VL: B1 VL with R24T, S25A, K35Y, N57S, N58K, T61S, A96S, G98T
notes: VH/VL only
B5: Construct 12 (mAb421) (antibody, IgG4, V domains shown)
VH: B1 VH with T30R, V103K, V105I
VL: B1 VL with L29V, K35Y, N58K, T61S, A96S, G98T
notes: VH/VL only
B6: Construct 11 (mAb420) (antibody, IgG4, V domains shown)
VH: B1 VH with T30R, S54D, G56S, I58T, V103K, V105I
VL: B1 VL with L29V, K35Y, N58K, T61S, A96S, G98Q, S99T
notes: VH/VL only
B7: Construct 17 (mAb425) (antibody, IgG4, V domains shown)
VH: B1 VH with T30R, G56S, N57S, I58T
VL: B1 VL with R24T, S25A, K35Y, N57S, N58K, T61S, L97Y, G98N
notes: VH/VL only
B8: Construct 19 (mAb427) (antibody, IgG4, V domains shown)
VH: B1 VH with T30R, D31T, F32Y, G56D, I58T, L101V, V103I, V105I
VL: B1 VL with R24T, K35Y, N58K, T61S
notes: VH/VL only
B9: Construct 22 (mAb430) (antibody, IgG4, V domains shown)
VH: B1 VH with T30R, G56S, N57S, I58T
VL: B1 VL with L29V, K35Y, N58K, T61S, A96S, G98T
notes: VH/VL only
B10: Construct 16 (mAb424) (antibody, IgG4, V domains shown)
VH: B1 VH with T30R, D31T, F32Y, G56D, V105I
VL: B1 VL with R24T, S25A, K35Y, N58K, T61S, A96S, G98T
notes: VH/VL only
B11: Construct 10 (mAb419) (antibody, IgG4, V domains shown)
VH: B1 VH with T30R, S54D, G56S, I58T, V103K, V105I
VL: B1 VL with K35Y, N58K, T61S
notes: VH/VL only

Biological target: T1, human IL-4Rα
Experiment: SPR, Carterra LSA;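 also: antibodies captured on an anti-human Fc sensor chip, antigen injected at several concentrations, association and dissociation rates fitted with a 1:1 Langmuir model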
Experimental: (§1) Binding affinity (KD) of antibodies to human and cynomolgus monkey IL-4Rα was determined through surface plasmon resonance (SPR) using a Carterra LSA. Briefly, an HC30M sensor chip that was previously functionalized with a polyclonal mixture of goat anti-human Fc antibody and used to capture purified antibodies at a level between 100-1000 RLU. […] Regeneration of the chip between different concentrations of antigen was performed with 200 mM phosphoric acid and antibody was captured again as previously described. Association and dissociation rate constants were subsequently determined through fitting to a 1:1 Langmuir binding model using the Kinetics Software from Carterra from which a KD value was derived.

| Binder | KD Relative to Dupilumab | Kd |
| --- | --- | --- |
| B1 | 0.76 | 0.00862 nM |
| B2 | 2.65 | 0.03 nM |
| B3 | 1.41 | 0.0159 nM |
| B4 | 0.76 | 0.00857 nM |
| B5 | 1.91 | 0.0215 nM |
| B6 | 1.17 | 0.0132 nM |
| B7 | 1.49 | 0.0169 nM |
| B8 | 3.19 | 0.036 nM |
| B9 | 0.77 | 0.00866 nM |
| B10 | 1.4 | 0.0158 nM |
| B11 | 1.1 | 0.0125 nM |

Biological target: T2, cynomolgus monkey IL-4Rα
Experiment: SPR, Carterra LSA;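 also: antibodies captured on an anti-human Fc sensor chip, antigen injected at several concentrations, association and dissociation rates fitted with a 1:1 Langmuir model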
Experimental: as §1

| Binder | KD Relative to Dupilumab | Kd |
| --- | --- | --- |
| B1 | 0.36 | 228 nM |
| B2 | 0.09 | 58 nM |
| B3 | 0.13 | 80.8 nM |
| B4 | 0.02 | 14.4 nM |
| B5 | 0.02 | 15.1 nM |
| B6 | 0.15 | 92.2 nM |
| B7 | 0.09 | 58.3 nM |
| B8 | 0.08 | 50.2 nM |
| B9 | 0.05 | 28.7 nM |
| B10 | 0.14 | 89.3 nM |
| B11 | 0.18 | 114 nM |

Biological target: T3, hIL-4Rα on cells
Experiment: cell-based or functional assay

| Binder | Relative Inhibition of IL-4 induced pSTAT6 IC50 | Relative Inhibition of IL-13 induced pSTAT6 IC50 |
| --- | --- | --- |
| B1 | 0.761 relative to dupilumab | 1.31 relative to dupilumab |
| B2 | 0.517 relative to dupilumab | 0.446 relative to dupilumab |
| B3 | 1.28 relative to dupilumab | 1.86 relative to dupilumab |
| B4 | 0.305 relative to dupilumab | 0.447 relative to dupilumab |
| B5 | 0.457 relative to dupilumab | 0.672 relative to dupilumab |
| B6 | 0.638 relative to dupilumab | 0.924 relative to dupilumab |
| B7 | 0.876 relative to dupilumab | 0.863 relative to dupilumab |
| B8 | 0.844 relative to dupilumab | 0.885 relative to dupilumab |
| B9 | 0.749 relative to dupilumab | 0.612 relative to dupilumab |
| B10 | 0.825 relative to dupilumab | 1.41 relative to dupilumab |
| B11 | 0.599 relative to dupilumab | 1.38 relative to dupilumab |

Biological target: T3, hIL-4Rα on cells
Experiment: cell-based or functional assay
Remark: another data set of the same source

| Binder | Relative Inhibition of IL-4 induced TARC IC50 | Relative Inhibition of IL-13 induced TARC IC50 |
| --- | --- | --- |
| B1 | 0.593 relative to dupilumab | 0.942 relative to dupilumab |
| B2 | 0.407 relative to dupilumab | 0.447 relative to dupilumab |
| B3 | 3.63 relative to dupilumab | 1.83 relative to dupilumab |
| B4 | 0.342 relative to dupilumab | 0.313 relative to dupilumab |
| B5 | 0.38 relative to dupilumab | 0.521 relative to dupilumab |
| B6 | 0.609 relative to dupilumab | 0.877 relative to dupilumab |
| B7 | 0.491 relative to dupilumab | 0.789 relative to dupilumab |
| B8 | 0.756 relative to dupilumab | 0.834 relative to dupilumab |
| B9 | 0.488 relative to dupilumab | 0.535 relative to dupilumab |
| B10 | 1.63 relative to dupilumab | 1.03 relative to dupilumab |
| B11 | 0.556 relative to dupilumab | 0.856 relative to dupilumab |

Biological target: T3, hIL-4Rα on cells
Experiment: cell-based or functional assay
Remark: another data set of the same source

| Binder | Relative Inhibition of IL-4 induced TF-1 Proliferation IC50 | Relative Inhibition of IL-13 induced TF-1 Proliferation IC50 |
| --- | --- | --- |
| B1 | 0.503 relative to dupilumab | 1.34 relative to dupilumab |
| B2 | 0.626 relative to dupilumab | 0.606 relative to dupilumab |
| B3 | 1.12 relative to dupilumab | 1.38 relative to dupilumab |
| B4 | 0.509 relative to dupilumab | 0.498 relative to dupilumab |
| B5 | 0.526 relative to dupilumab | 0.87 relative to dupilumab |
| B6 | 0.455 relative to dupilumab | 1.72 relative to dupilumab |
| B7 | 0.729 relative to dupilumab | 0.844 relative to dupilumab |
| B8 | 0.835 relative to dupilumab | 0.55 relative to dupilumab |
| B9 | 0.746 relative to dupilumab | 0.495 relative to dupilumab |
| B10 | 1.04 relative to dupilumab | 1.44 relative to dupilumab |
| B11 | 0.431 relative to dupilumab | 1.39 relative to dupilumab |

Biological target: T3, hIL-4Rα on cells
Experiment: FACS on HEK293 cells, competitor biotin-hIL-4;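 also: HEK293 cells stably co-expressing hIL-13Rα and hIL-4Rα, stained for 1 h at 4 °C, read-out as mean fluorescence intensity by flow cytometry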
Experimental: Briefly, HEK293 previously transduced to stably express both hIL-13Rα and hIL-4Rα were cultured and harvested. Cells were seeded at 200,000 cells in 100 uL per well. Cells were washed and the supernatant discarded. […] The cells were stained in this mixture at 4° C. for 1 hour. […] Cells were incubated 4° C. for 1 hour, protected from light. Cells were then washed and the MFI of cells in each well were recorded by FACS using a BD FACSCanto II. Subsequent data were analyzed using GraphPad Prism.

| Binder | Relative Blockade of IL-4 Binding IC50 |
| --- | --- |
| B1 | 0.757 relative to dupilumab |
| B2 | 0.85 relative to dupilumab |
| B3 | 1.44 relative to dupilumab |
| B4 | 0.749 relative to dupilumab |
| B5 | 1.07 relative to dupilumab |
| B6 | 0.977 relative to dupilumab |
| B7 | 1.11 relative to dupilumab |
| B8 | 0.867 relative to dupilumab |
| B9 | 0.829 relative to dupilumab |
| B10 | 0.895 relative to dupilumab |
| B11 | 0.992 relative to dupilumab |

Biological target: T3, hIL-4Rα on cells
Experiment: FACS on HEK293 cells, competitor biotin-hIL-13;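 also: stably transduced cells co-expressing both receptor chains, stained cold, with cell-bound signal read as mean fluorescence intensity by flow cytometry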

| Binder | Relative Blockade of IL-13 Binding IC50 |
| --- | --- |
| B1 | 0.911 relative to dupilumab |
| B2 | 0.813 relative to dupilumab |
| B3 | 1.14 relative to dupilumab |
| B4 | 0.706 relative to dupilumab |
| B5 | 0.921 relative to dupilumab |
| B6 | 0.928 relative to dupilumab |
| B7 | 1.17 relative to dupilumab |
| B8 | 1.02 relative to dupilumab |
| B9 | 0.785 relative to dupilumab |
| B10 | 0.904 relative to dupilumab |
| B11 | 0.922 relative to dupilumab |

Reference: patent US20260193366A1 (APOGEE THERAPEUTICS, published 2026)
